Assay results reported in patent US20100239597A1.
Where a chain is given by its changes, count along the chain named.

B1: 20C2-6B IgG1 (antibody, V domains shown)
VH: QVTLKESGPALVKPTQTLTLTCTLSGFSLSTSGMGVGWIRQPPGKALEWLAHIWWDDDKSYNPSLKSRLTISKDTSKNQVVLTMTNMDPVDTATYYCARRQLGLRSIDAMDYWGQGTTVTVSS
VL: DVVMTQSPLSLPVTPGEPASISCRSSQSILHSNGNTYLEWYLQKPGQSPQLLIYKVSNRFSGVPDRFSGSGSGTDFTLKISRVEAEDVGVYYCFQSSRVPLTFGQGTKLEIK
B2: 20C2-8B IgG1 (antibody, V domains shown)
VH: B1 VH
VL: B1 VL with F94L, S96T, S97T

Tests used:
[1] = molecular target: biotinylated ADDL (bADDL) (UniProt P05067); experiment: BIACORE, bADDL as antigen; IgG1#1
[2] = molecular target: biotin-Aβ1-20 (UniProt P05067); experiment: BIACORE, biotin-Aβ1-20 as antigen; IgG1#1
[3] = molecular target: biotinylated ADDL (bADDL) (UniProt P05067); experiment: BIACORE, bADDL as antigen; IgG1#2
[4] = molecular target: biotin-Aβ1-20 (UniProt P05067); experiment: BIACORE, biotin-Aβ1-20 as antigen; IgG1#2

Row | Binder | Kd [1] | Kd [2] | Kd [3] | Kd [4]
1 | B1 | 0.053 nM | 0.053 nM | – | –
2 | B2 | 0.013 nM | 0.046 nM | 0.0008 nM | 0.064 nM
